Laboratory results as given in patent US20190276542A1 (QILU PUGET SOUND BIOTHERAPEUTICS, published 2019).
Read-outs that look alike come from different tables or passages of the source.

B1: anti-hCTLA4 antibody 10D4 (antibody, human IgG1, V domains shown)
VH: QVQLVESGGGVVEPGRSLRLSCTASGFTFSSYGMHWVRQAPGKGLEWVAVIWYHPSKKDYADSAKGRFTISRDNSKNTLYLQMNSLRAEDTAVYYCARAGLLGYFDYWGQGTLVTVSS
VL: EIVLTQSPGTLSLSPGERATLSCRASQSVTSYLAWYQQKPGQAPRPLIYGVSSRATGIPDRFSGSGSGTDFTLTISRLEPEDFAVYYCQQYGRYPFTFGPGTKVDIK
notes: unaltered form; also called Anti-CTLA4 10D4; anti-hCTLA4 #10D4
B2: anti-hCTLA4 antibody 11F4 (antibody, human IgG1, V domains shown)
VH: QVQLVESGGGVVEPGRSLRLSCAASGFTFSSYGMHWVRQAPGKGLEWVAVIWYKPSEKDYADSAKGRFTISRDNSKNTLYLQMNSLRAEDTAVYYCARGGLLGYFDYWGQGTLVTVSS
VL: EIVLTQSPGTLSLSPGERATLSCRASQSINSYLAWYQQKPGQAPRPLIYGVSSRATGIPDRFSGSGSGTDFTLTISRLEPEDFAVYYCQQYGRYPFTFGPGTKVDIK
notes: unaltered form; also called Anti-CTLA4 11F4; anti-hCTLA4 #11F4
B3: altered anti-hCTLA4 11F4 (antibody, human IgG1, kappa, V domains shown)
VH: QVQLVESGGGVVEPGRSLRLSCAASGFTFSSYGMHWVRQAPGKRLEWVAVIWYKPSEKDYADSAKGRFTISRDNSKNTLYLQMNSLRAEDTAVYYCARGGLLGYFDYWGDGTLVTVSS
VL: EIVLTQSPGTLSLSPGERATLSCRASQSINSYLAWYQQKPGQRPRPLIYGVSSRATGIPDRFSGSGSGTDFTLTISRLEPEDFAVYYCQQYGRYPFTFGDGTKVDIKR

What was measured:
[1] = target: T1, human CTLA4 expressed on Jurkat T cells (human, UniProt P16410 36-223); assay: cell-based or functional assay
T1 sequence (P16410 36-223): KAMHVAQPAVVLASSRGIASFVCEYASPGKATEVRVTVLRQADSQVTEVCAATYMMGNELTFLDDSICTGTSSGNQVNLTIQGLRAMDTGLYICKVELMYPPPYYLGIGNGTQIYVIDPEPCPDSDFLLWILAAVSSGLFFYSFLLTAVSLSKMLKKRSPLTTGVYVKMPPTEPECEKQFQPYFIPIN

[2] = target: T1, human CTLA4 expressed on Jurkat T cells; assay: cell-based or functional assay; remark: listed apart in the source
[3] = target: T1, human CTLA4 expressed on Jurkat T cells; assay: flow cytometry on Jurkat T cells expressing hCTLA4
Text: After washing, the surface-bound anti-hCTLA4 antibodies were detected with a polyclonal anti-hlgG (Fc-specific) antibody labeled with fluorescein isothiocyanate (FITC)(anti-hlgG-FITC). Binding of anti-hCTLA4 antibodies were detected by flow cytometric analysis. The results were reported a geometric mean fluorescence intensity (MFI) using FlowJo software (FLOWJO, L.L.C., Ashland, Oreg., USA).

[4] = target: T2, CTLA4-ECD_Fc, soluble hCTLA4 comprising the extracellular domain of hCTLA4 fused to an Fc fragment (human, UniProt P16410 36-161); assay: flow cytometry; inhibition of CTLA4-ECD_Fc binding to Raji cells (hB7-1/hB7-2)
T2 construct: extracellular domain; not shown: Fc fragment
T2 sequence (P16410 36-161): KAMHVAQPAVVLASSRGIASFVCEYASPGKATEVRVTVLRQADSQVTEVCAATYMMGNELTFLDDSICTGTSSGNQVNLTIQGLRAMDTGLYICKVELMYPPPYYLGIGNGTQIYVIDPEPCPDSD
Experimental: In a first assay, inhibition of hCTLA4 binding to hB7-1 and hB7-2 expressed on the surface of Raji cells was assessed. Raji cells, which are human cells, express high levels of hB7-1 and hB7-2. […] After 30 minutes, 1×10⁵ Raji cells were added to each well and incubated for another 30 minutes. […] IC₅₀'s were calculated using GraphPad Prism software (GraphPad, Inc., La Jolla, Calif., USA).

[5] = target: T1, human CTLA4 expressed on Jurkat T cells; assay: cell-based or functional assay; remark: listed apart in the source

Binder	IC50, luciferase (RLU), CTLA4 Dual-Cell Reporter Assay (Jurkat cells with hCTLA4 plus Raji cells) [1]	IC50, luciferase reporter assay (Jurkat cells with CTLA4 plus Raji cells with hCD80 and hCD86) [2]	EC50 [3]	IC50 [4]	IC50, luciferase reporter assay (Jurkat cells with CTLA4 plus Raji cells with hCD80 and hCD86) [5]
B1	6.12 nM	2.12 nM	0.085 nM	3.3 nM	–
B2	7.39 nM	–	0.158 nM	7.5 nM	4.8 nM
B3	–	–	–	–	8.68 nM
